Test results published in patent publication US20090117124A1 (Pfizer, published 2009).
Where a chain is given by its changes, count along the chain named. Names and notes keep the numbering of the source. One block for each binder: values may come before it.

Columns and labels:
[1] = molecular target: T1, free IgE in human serum (healthy volunteers, in-house donors) (human, UniProt P01854-1 1-428); assay: serum free IgE depletion ELISA; DIN 0649
T1 construct: Kept apart from the bought myeloma IgE because it is native serum IgE of single donors; also called serum IgE
Description: (§1) The next day ELISA plates were washed 1× with 300 μL/well wash buffer (0.05% Tween-20, Sigma, Cat. No. P7949/TBS) then blocked with 150 μL/well 1% BSA (Sigma, Cat. No. A7030) in TBS for 1 hour at room temperature.

[2] = molecular target: T1, free IgE in human serum (healthy …); assay: serum free IgE depletion ELISA; DIN 0623 experiment 2
Description: as §1

[3] = molecular target: T2, cynomolgus monkey IgE (in cynomolgus serum, Harlan Sera-Lab Ltd) (cynomolgus monkey); assay: capture ELISA, Test 2, Cyno 1
T2 construct: Serum was the source of IgE; eight serum samples; also called cynomolgus IgE; Cyno 1 to Cyno 8 serum samples
Description: (§2) Wells were washed once with 150 μL/well wash buffer (0.05% Tween-20, Sigma, Cat. No. P7949/TBS) then blocked with 150 μL/well 1% BSA (Sigma, Cat. No. A7030) in TBS for 2 hours at room temperature. Wells were washed twice with 150 μL wash buffer. 50 μL human (in-house donors) or cynomolgus serum (Harlan Sera-Lab Ltd, Loughborough) was added from neat to at least 1:16 dilution in 1% BSA/0.05% Tween-20/TBS diluent buffer. […] Wells were incubated for 2 hours at 25° C. before washing (3×150 μL wash buffer). […] Wells were incubated for 1 hour at 25° C. then washed (3×150 μL wash buffer). Streptavidin-HRP (Amersham Bioscience, Cat. No. RPN 1231) diluted 1:1000 in diluent buffer was added to all wells and incubated for 45 minutes at room temperature. Wells were washed (3×150 […] wash buffer). 50 μL OPD (Dako, Cat. No. S2045) was added to all wells and the color allowed to develop for 10 minutes before stopping the reaction with 50 μl 0.6M H₂SO₄ and the absorbance measured at 490 nm.

[4] = molecular target: T3, human IgE (Human myeloma, azide free, Serotec, Cat. No. PHP008X2) (human, UniProt P01854 1-546); assay: inhibition of IgE binding to RBL-2H3 (FcεR1) cells
T3 construct: mature; Bought full length human myeloma IgE; in the BIAcore kinetics Serotec PHP008X2 or Europa Bioproducts CP1035K was used; also called full length human IgE; human immunoglobulin E
Description: RBL-2H3 (FcεR1) cells were cultured in MEM-Earles (Invitrogen Cat. No. 2109002) supplemented with 2 mM L-Glutamine (Sigma, Cat. No. G7513), 1 mg/mL Geneticin Liquid (Invitrogen Cat. No. 10131027) and 15% FBS (PAA Laboratories GmbH, Cat. No. A15-043). RBL-2H3 (FcεR1) cells were seeded into sterile 96-well plates (Costar, Fisher Scientific, Cat. No. TKY-521-090S) at 1×10⁵ cells/well and cultured overnight at 37° C., 5% CO₂ in a humidified atmosphere. The next day cells were washed 3× with 150 μL/well wash buffer (10% BSA, Sigma Cat. No A7030, in PBS, Sigma, Cat. No D8537). […] Cells were washed 3× with 150 μL/well wash buffer and then incubated with 50 μL/well streptavidin-HRP (Amersham Bioscience, Cat. No. RPN 1231) diluted 1:250, for 45 minutes. Cells were washed 3× with 150 μL/well wash buffer. 50 μL OPD (Dako, Cat. No. S2045) was added to all wells and the colour allowed to develop for 10 minutes before stopping the reaction with 50 μL 0.6M H₂SO₄ and the absorbance measured at 490 nm.

[5] = molecular target: T2, cynomolgus monkey IgE (in cynomolgus …); assay: capture ELISA, Test 2, Cyno 3
Description: as §2

[6] = molecular target: T1, free IgE in human serum (healthy …); assay: serum free IgE depletion ELISA; DIN 0321 experiment 2
Description: as §1

[7] = molecular target: T2, cynomolgus monkey IgE (in cynomolgus …); assay: capture ELISA, Test 2, Cyno 6
Description: as §2

[8] = molecular target: T1, free IgE in human serum (healthy …); assay: serum free IgE depletion ELISA; DIN 0347
Description: as §1

[9] = molecular target: T1, free IgE in human serum (healthy …); assay: capture ELISA, Test 2, human serum
Description: as §2

[10] = molecular target: T2, cynomolgus monkey IgE (in cynomolgus …); assay: capture ELISA, Test 2, Cyno 7
Description: as §2

[11] = molecular target: T1, free IgE in human serum (healthy …); assay: serum free IgE depletion ELISA; DIN 0591
Description: as §1

[12] = molecular target: T1, free IgE in human serum (healthy …); assay: serum free IgE depletion ELISA; DIN 0461
Description: as §1

[13] = molecular target: T2, cynomolgus monkey IgE (in cynomolgus …); assay: capture ELISA, Test 2, Cyno 4
Description: as §2

[14] = molecular target: T3, human IgE (Human myeloma, azide free, …); assay: cell-based or functional assay
[15] = molecular target: T2, cynomolgus monkey IgE (in cynomolgus …); assay: capture ELISA, Test 2, Cyno 5
Description: as §2

T1 sequence (P01854 other isoform, or with tags, fused parts or gaps): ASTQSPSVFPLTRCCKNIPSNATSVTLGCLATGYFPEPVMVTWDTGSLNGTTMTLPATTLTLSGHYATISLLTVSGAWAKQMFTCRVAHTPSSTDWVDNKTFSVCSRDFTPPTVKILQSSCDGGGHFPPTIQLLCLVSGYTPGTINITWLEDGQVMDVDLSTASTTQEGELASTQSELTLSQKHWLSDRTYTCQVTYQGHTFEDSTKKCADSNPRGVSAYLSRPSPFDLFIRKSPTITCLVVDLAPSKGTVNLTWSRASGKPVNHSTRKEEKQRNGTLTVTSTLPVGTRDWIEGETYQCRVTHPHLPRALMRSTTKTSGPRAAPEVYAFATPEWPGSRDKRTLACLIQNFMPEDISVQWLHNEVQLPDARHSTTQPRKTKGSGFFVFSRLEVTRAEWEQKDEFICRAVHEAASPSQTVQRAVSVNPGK
T3 sequence (P01854 whole entry): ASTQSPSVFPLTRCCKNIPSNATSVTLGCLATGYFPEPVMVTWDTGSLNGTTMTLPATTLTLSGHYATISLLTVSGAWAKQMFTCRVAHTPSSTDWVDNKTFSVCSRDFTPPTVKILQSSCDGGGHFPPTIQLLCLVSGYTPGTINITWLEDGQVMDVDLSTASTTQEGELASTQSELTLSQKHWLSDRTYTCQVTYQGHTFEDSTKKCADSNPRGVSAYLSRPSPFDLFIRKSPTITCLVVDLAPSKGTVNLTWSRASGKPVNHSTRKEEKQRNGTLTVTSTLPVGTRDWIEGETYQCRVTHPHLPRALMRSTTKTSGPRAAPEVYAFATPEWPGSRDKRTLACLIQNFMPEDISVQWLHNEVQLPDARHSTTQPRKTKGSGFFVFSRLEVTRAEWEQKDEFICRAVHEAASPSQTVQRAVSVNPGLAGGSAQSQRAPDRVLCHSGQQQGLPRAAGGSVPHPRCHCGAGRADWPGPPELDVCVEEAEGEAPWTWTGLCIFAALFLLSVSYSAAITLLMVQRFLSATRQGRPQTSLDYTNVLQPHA

IC25 ng/mL [1]: 1.95 µg/mL | IC25 ng/mL [2]: 4.13 µg/mL | IgE concentration detected [3]: 289 ng/mL | IC50 [4]: < 0.5 µg/mL | IgE concentration detected [5]: 309 ng/mL | IC25 ng/mL [6]: 7.9 µg/mL | IgE concentration detected [7]: 62 ng/mL | IC25 ng/mL [8]: 4.92 µg/mL | IgE concentration detected [9]: 431 ng/mL | IgE concentration detected [10]: 0 ng/mL | IC25 ng/mL [11]: 2.35 µg/mL | IC25 ng/mL [12]: 1.47 µg/mL | IgE concentration detected [13]: 38 ng/mL | IC50, inhibition of IgE-mediated degranulation (histamine release) of RBL-2H3 (FcεR1) cells; Batch 1 [14]: 0.36 µg/mL | IC50, inhibition of IgE-mediated degranulation (histamine release) of RBL-2H3 (FcεR1) cells; Batch 2 [14]: 0.123 µg/mL | IgE concentration detected [15]: 630 ng/mL
B1: 5.948.1 (recombinant) (antibody, human IgG2, kappa, V domains shown)
VH: QVQLVQSGAEVKKPGASVKVSCKASGYTFTSYDINWVRQATGQGLEWMGWMDPNSGNTGYAQKFQGRVTMTRNTSISTAYMELSSLRSEDTAVYYCARGHYDSDGYYSFSGMDVWGQGTTVTVSS
VL: not shown
notes: Human IgG2 kappa; leader omitted; Two batches were tested in some assays; also called recombinant 5.948.1; 5.948.1 - Batch 1 (762.8 µg/mL)

IC25 ng/mL [1]: 0.39 µg/mL | IC25 ng/mL [2]: 0.76 µg/mL | IgE concentration detected [3]: 170 ng/mL | IC50 [4]: < 0.5 µg/mL | IgE concentration detected [5]: 178 ng/mL | IC25 ng/mL [6]: 2.55 µg/mL | IgE concentration detected [7]: 39 ng/mL | IC25 ng/mL [8]: 1.33 µg/mL | IgE concentration detected [9]: 408 ng/mL | IgE concentration detected [10]: 0 ng/mL | IC25 ng/mL [11]: 0.55 µg/mL | IC25 ng/mL [12]: 0.34 µg/mL | IgE concentration detected [13]: 25 ng/mL | IC50, inhibition of IgE-mediated degranulation (histamine release) of RBL-2H3 (FcεR1) cells [14]: 0.0121 µg/mL | IgE concentration detected [15]: 420 ng/mL
B2: 5.948.1 Hc-H100Y (antibody, human IgG2, kappa, V domains shown)
VH: B1 VH with H100Y
VL: not shown
notes: Human IgG2 kappa; leader omitted; also called 5.948.1 (H100Y); 5.948.1 H100Y
